Literature values as cited in paper PMC11811815.

Target: Usp18 (Mus musculus) (UniProt Q9WTV6)
UniProt Q9WTV6, sequence (Q9WTV6 whole entry): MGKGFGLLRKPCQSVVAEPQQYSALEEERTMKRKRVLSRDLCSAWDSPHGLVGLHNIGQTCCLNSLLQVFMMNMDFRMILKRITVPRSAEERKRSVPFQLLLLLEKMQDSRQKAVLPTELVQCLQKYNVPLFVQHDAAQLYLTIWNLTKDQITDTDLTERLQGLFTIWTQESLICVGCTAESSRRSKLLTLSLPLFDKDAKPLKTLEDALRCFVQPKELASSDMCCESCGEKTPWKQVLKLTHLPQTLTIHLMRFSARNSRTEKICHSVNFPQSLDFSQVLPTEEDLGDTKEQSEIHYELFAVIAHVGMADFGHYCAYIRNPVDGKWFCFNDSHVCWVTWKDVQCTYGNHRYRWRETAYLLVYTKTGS

Isg15 (from UniProt Q64339)
Kd: 1300 nM
